Oligonucleotides are written 5' to 3', each unit as a sugar letter and its base; * is a phosphorothioate linkage, no mark a phosphodiester; rarer units and linkages stand in square brackets, end groups in braces. Plain capitals give the bases only. m = 2'-O-methyl; r = 2'-OH (RNA)
T1: Asialoglycoprotein receptor (ASGP-R) (Homo sapiens, UniProt P07306)
T1 sequence (P07306 1-291): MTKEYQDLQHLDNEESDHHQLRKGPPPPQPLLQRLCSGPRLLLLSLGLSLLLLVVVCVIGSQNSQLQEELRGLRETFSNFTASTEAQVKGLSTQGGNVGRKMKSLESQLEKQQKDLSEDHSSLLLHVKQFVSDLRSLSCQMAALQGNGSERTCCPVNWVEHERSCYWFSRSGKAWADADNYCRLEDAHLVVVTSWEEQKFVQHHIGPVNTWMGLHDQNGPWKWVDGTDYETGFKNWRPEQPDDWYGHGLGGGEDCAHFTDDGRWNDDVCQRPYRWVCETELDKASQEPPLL
T1 sequence (P07307 1-311 partner): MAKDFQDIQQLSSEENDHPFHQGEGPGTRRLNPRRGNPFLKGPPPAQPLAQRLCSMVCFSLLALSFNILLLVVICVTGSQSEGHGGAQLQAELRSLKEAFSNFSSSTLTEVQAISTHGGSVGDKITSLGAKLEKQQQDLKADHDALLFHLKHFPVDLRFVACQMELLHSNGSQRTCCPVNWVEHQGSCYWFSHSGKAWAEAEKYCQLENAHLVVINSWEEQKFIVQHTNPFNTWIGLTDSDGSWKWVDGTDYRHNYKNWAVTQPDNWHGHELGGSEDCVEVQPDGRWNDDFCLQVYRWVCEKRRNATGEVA


Legend:
[1] = target: T1, Asialoglycoprotein receptor (ASGP-R); details: ligand: N-acetylgalactosamine (GalNAc); cited from earlier work
human TTR gene = test: Base editing in primary human hepatocytes co-transfected with gRNA and ABE8.8 mRNA, NGS; assay type: cell-based; details: for Human hepatocytes- Editing % 625, rep 1 / Human hepatocytes- Editing % 625, rep 2: 625 ng/RNA/mL; for Human hepatocytes- Editing % 625, rep 1 / Human hepatocytes- Editing % 1250, rep 1 / Human hepatocytes- Editing % 2500, rep 1: rep 1, 3 days after transfection; for Human hepatocytes- Editing % 625, rep 2 / Human hepatocytes- Editing % 1250, rep 2 / Human hepatocytes- Editing % 2500, rep 2: rep 2, 3 days after transfection; for Human hepatocytes- Editing % 1250, rep 1 / Human hepatocytes- Editing % 1250, rep 2: 1250 ng/RNA/mL; for Human hepatocytes- Editing % 2500, rep 1 / Human hepatocytes- Editing % 2500, rep 2: 2500 ng/RNA/mL; for editing activity in human primary hepatocytes (in words): ABE8.8 mRNA co-transfection
Description: With this example, gRNA sequences were identified that permit ABE8.8 (and other ABE variants containing Streptococcus pyogenes Cas9, such as ABE7.10, or another Cas protein that can use the NGG PAM) to either: 1) disrupt the start codon, or 2) disrupt splice sites, whether donors or acceptors, via A→G editing within its editing window (roughly positions 4 to 7 in the 20-nt protospacer region of DNA). Five sequences were identified throughout the human TTR gene (Table 1). gRNAs were synthesized matching each of the protospacer sequences and otherwise conforming to the standard 100-nt Streptococcus pyogenes CRISPR gRNA sequence, with each gRNA molecule having a minimal degree of chemical modifications (specified in Table 1).
(§1) The mRNA, and corresponding amino acid, sequence of the ABE8.8 (MA004) used in shown below in Table 11. Three days after transfection, genomic DNA was harvested from the hepatocytes, and assessed for base editing with next-generation sequencing of PCR amplicons generated around the target splice site. […] See FIGS. 5A-5C, FIG. 6, and Tables 2-3.

[2] = tested on: cynomolgus monkey TTR gene; test: Base editing in primary cynomolgus hepatocytes transfected with gRNA and ABE8.8 mRNA, NGS; assay type: cell-based; details: for Cyno hepatocytes- Editing % 156.25: 156.25 ng/RNA/mL; for Cyno hepatocytes- Editing % 312.5: 312.5 ng/RNA/mL; for Cyno hepatocytes- Editing % 625: 625 ng/RNA/mL; for Cyno hepatocytes- Editing % 1250: 1250 ng/RNA/mL; for Cyno hepatocytes- Editing % 2500: 2500 ng/RNA/mL; for Cyno hepatocytes- Editing % 5000: 5000 ng/RNA/mL; for editing activity in cynomolgus primary hepatocytes (in words): ABE8.8 mRNA co-transfection
Description: as §1

TTR on-target site = test: Off-target validation in human primary hepatocytes: on-target site editing; assay type: cell-based; details: for on-target site editing efficiency (in words): treated vs control groups, human primary hepatocytes
Description: (§2) Several candidate off-target sites were analyzed for off-target editing in human primary hepatocytes.

[3] = tested on: candidate off-target sites; test: Off-target validation in human primary hepatocytes: candidate off-target site editing; assay type: cell-based
Description: With a view towards establishing the safety of a base-editing therapy knocking down of TTR in the human liver in vivo, off-target mutagenesis analysis is assessed in primary human hepatocytes. […] The in vitro biochemical assay ONE-seq was used to generate a list of candidate off-target sites and to determine the propensity of a ribonucleoprotein comprising the ABE8.8 base editor protein and each of the three protospacer guides sequences (GA457, GA460, and GA461) to cleave oligonucleotides in a library.
For each site, the total number of edited reads was normalized to the total number of edited reads assigned to the on-target site, and this ratio defines the ONE-seq score for the site. Sites were ranked by ONE-seq score, and those with a score equal to or larger than 0.001, were selected for validation. A score equal to or larger than 0.001 encompasses sites that have down to 1000-fold less editing activity in the biochemical assay compared to editing of the on-target site. This threshold is based on the premise that in cells, if there is 100% on-target editing, 1/1000-fold less editing activity would translate to <0.1% off-target editing, which falls below the lower limit of detection of editing by NGS.
as §2

TTR gene = test: GA521 dose response base editing in primary human hepatocytes, NGS; assay type: cell-based; details: MessengerMax transfection, various doses total RNA (ng/ml), 3 days
Description: Exemplary guide RNA GA521 was transfected into primary human hepatocytes using MessengerMax transfection. GA521 disrupts the start codon AUG of the TTR gene by editing it to ACG with an A-to-G base editor (e.g., ABE8.8; ABE8.8-m).
Three days after transfection, genomic DNA was harvested from the hepatocytes, and assessed for base editing with next-generation sequencing of PCR amplicons generated around the target splice site.
FIG. 29 depicts dose response for human gRNA GA521 in primary human hepatocytes. Percent base editing at various doses (ng/ml) total RNA was determined from NGS analysis. GA521 was the guide RNA.

[4] = GA460 On-target TATAGGAAAACCAGTGAGTC
[5] = GA457 site OT29 GACATCCTGTCAAGGATCAG
[6] = GA457 site OT31 GCCATAAGCCAAAGAATGAC
[7] = GA459 On-target GCAACTTACCCAGAGGCAAA

Molecule	Human hepatocytes- Editing % 625, rep 1 (human TTR gene)	Human hepatocytes- Editing % 625, rep 2 (human TTR gene)	Human hepatocytes- Editing % 1250, rep 1 (human TTR gene)	Human hepatocytes- Editing % 1250, rep 2 (human TTR gene)	Human hepatocytes- Editing % 2500, rep 1 (human TTR gene)	Human hepatocytes- Editing % 2500, rep 2 (human TTR gene)	editing activity in human primary hepatocytes (in words) (human TTR gene)	Cyno hepatocytes- Editing % 156.25 [2]	Cyno hepatocytes- Editing % 312.5 [2]	Cyno hepatocytes- Editing % 625 [2]	Cyno hepatocytes- Editing % 1250 [2]	Cyno hepatocytes- Editing % 2500 [2]	Cyno hepatocytes- Editing % 5000 [2]	editing activity in cynomolgus primary hepatocytes (in words) [2]	on-target site editing efficiency (in words) (TTR on-target site)	off-target editing at candidate off-target sites (in words) ([3]; human primary hepatocytes)	further results
CC(=O)NC1O[C@H](CO)[C@H](O)[C@H](O)[C@H]1O (stereo partly drawn) [N-Acetyl-D-Galactosylamine]																	affinity for ASGP-R relative to D-Gal [1]: 50 fold
GA461: guide RNA, human/cyno TTR, protospacer TACTCACCTCTGCATGCTCA (SEQ ID NO: 27), gRNA SEQ ID NO: 15 (nucleic acid, chemistry not given here) guide: TACTCACCTCTGCATGCTCAGTTTTAGAGCTAGAAATAGCAAGTTAAAATAAGGCTAGTCCGTTATCAACTTGAAAAAGTGGCACCGAGTCGGTGCTTTT	21.81%	22.31%	32.82%	32.38%	40.42%	39.43%	high editing activity	0.07%	7.45%	13.16%	19.46%	29.8%	37.53%	high editing activity	high editing efficiency	little to no off-target editing	SUM Editing %-Human Primary Hepatocytes Treat rep 2 (TTR on-target site; GA461 On-target TACTCACCTCTGCATGCTCA): 58.9%
GA460: guide RNA, human/cyno TTR, protospacer TATAGGAAAACCAGTGAGTC (SEQ ID NO: 26), gRNA SEQ ID NO: 14 (nucleic acid, chemistry not given here) guide: TATAGGAAAACCAGTGAGTCGTTTTAGAGCTAGAAATAGCAAGTTAAAATAAGGCTAGTCCGTTATCAACTTGAAAAAGTGGCACCGAGTCGGTGCTTTT	23.77%	22.27%	38.33%	35.8%	47.61%	47.79%	high editing activity	1.62%	11.22%	18.44%	31.71%	38.25%	40.16%	high editing activity	high editing efficiency	little to no off-target editing	SUM Editing %-Human Primary Hepatocytes Treat rep 1 (TTR on-target site; [4]): 76.4%; SUM Editing %-Human Primary Hepatocytes Treat rep 2 (TTR on-target site; [4]): 74.3%
GA457: guide RNA, human TTR, protospacer GCCATCCTGCCAAGAATGAG (SEQ ID NO: 24), gRNA SEQ ID NO: 11 (nucleic acid, chemistry not given here) guide: GCCATCCTGCCAAGAATGAGGTTTTAGAGCTAGAAATAGCAAGTTAAAATAAGGCTAGTCCGTTATCAACTTGAAAAAGTGGCACCGAGTCGGTGCTTTT	17.24%	15.39%	26.49%	24.86%	33.96%	31.31%	high editing activity								high editing efficiency		% Editing-human primary hepatocytes Treated (TTR on-target site; GA457 On-target GCCATCCTGCCAAGAATGAG): 54.21%; % Editing-human primary hepatocytes Net (TTR on-target site; GA457 On-target GCCATCCTGCCAAGAATGAG, treated minus untreated): 54.1%; net editing at all off-target sites ([3]; 47 candidate off-target sites, human primary hepatocytes): less than 0.4%; % Editing-human primary hepatocytes Net ([3]; GA457 site OT3 GCCATACCTGCCATGAATGAG): 0.01%; % Editing-human primary hepatocytes Net [3, 5]: 0.05%; % Editing-human primary hepatocytes Treated [3, 5]: 0.21%; % Editing-human primary hepatocytes Net [3, 6]: 0.09%; % Editing-human primary hepatocytes Treated [3, 6]: 0.09%
GA521: modified guide RNA, human TTR, GA457 spacer with 2′-O-methyl modified tracr, SEQ ID NO: 11 (nucleic acid, chemistry not fully specified) guide: GCCATCCTGCCAAGAATGAGGTTTTAGAGCTAGAAATAGCAAGTTAAAATAAGGCTAGTCCGTTATCAACTTGAAAAAGTGGCACCGAGTCGGTGCTTTT																	percent base editing in primary human hepatocytes (TTR gene): greater than 40%
GA459: guide RNA, human TTR, protospacer GCAACTTACCCAGAGGCAAA (SEQ ID NO: 25), gRNA SEQ ID NO: 13 (nucleic acid, chemistry not given here) guide: GCAACTTACCCAGAGGCAAAGTTTTAGAGCTAGAAATAGCAAGTTAAAATAAGGCTAGTCCGTTATCAACTTGAAAAAGTGGCACCGAGTCGGTGCTTTT	3.79%	3.89%	5.46%	6.15%	8.5%	8.69%									high editing efficiency	little to no off-target editing	SUM Editing %-Human Primary Hepatocytes Treat rep 1 (TTR on-target site; [7]): 14.17%; SUM Editing %-Human Primary Hepatocytes Treat rep 2 (TTR on-target site; [7]): 14.29%
GA458: guide RNA, cyno TTR, protospacer GCCATCCTGCCAAGAACGAG (SEQ ID NO: 28), gRNA SEQ ID NO: 29; cynomolgus equivalent of GA457 (nucleic acid) guide: mG*mC*mC*rArUrCrCrUrGrCrCrArArGrArArCrGrArGrGrUrUrUrUrArGrArGrCrUrArGrArArArUrArGrCrArArGrUrUrArArArArUrArArGrGrCrUrArGrUrCrCrGrUrUrArUrCrArArCrUrUrGrArArArArArGrUrGrGrCrArCrCrGrArGrUrCrGrGrUrGrCrU*mU*mU*mU								6.06%	10.65%	16.07%	22.74%	27.25%	35.91%	high editing activity			

Reference: patent US20250312491A1, “BASE EDITING OF TRANSTHYRETIN GENE” (Beam Therapeutics Inc., priority 2022, published 2025)
